Starred links: 1 amine or outer side, 2 acyl side, 3 side chain; linkers in the order of their positions; H or OH if unused. Non-standard residues stand in square brackets, D forms with d. Groups on a side chain read outwards from the residue. Primed or numbered codes have the meaning given here. No end group written: not given here. *: point of attachment. γGlu = O=C(O)[C@H](CCC(=O)[*:2])N[*:1]; Stearoyl = CCCCCCCCCCCCCCCCCC(=O)*; Palmitoyl = CCCCCCCCCCCCCCCC(=O)*; αMeF = C[C@](N)(Cc1ccccc1)C(=O)O; αMeK = C[C@](N)(CCCCN)C(=O)O; Lauroyl = CCCCCCCCCCCC(=O)*; αMeS = C[C@](N)(CO)C(=O)O; PEG2′ = not defined here; Aib = CC(C)(N)C(=O)O; Ahx = NCCCCCC(=O)O
T1: GLP-1R (INS1e assay) (UniProt P32301 22-463, limits assumed)
T1 sequence (looked up): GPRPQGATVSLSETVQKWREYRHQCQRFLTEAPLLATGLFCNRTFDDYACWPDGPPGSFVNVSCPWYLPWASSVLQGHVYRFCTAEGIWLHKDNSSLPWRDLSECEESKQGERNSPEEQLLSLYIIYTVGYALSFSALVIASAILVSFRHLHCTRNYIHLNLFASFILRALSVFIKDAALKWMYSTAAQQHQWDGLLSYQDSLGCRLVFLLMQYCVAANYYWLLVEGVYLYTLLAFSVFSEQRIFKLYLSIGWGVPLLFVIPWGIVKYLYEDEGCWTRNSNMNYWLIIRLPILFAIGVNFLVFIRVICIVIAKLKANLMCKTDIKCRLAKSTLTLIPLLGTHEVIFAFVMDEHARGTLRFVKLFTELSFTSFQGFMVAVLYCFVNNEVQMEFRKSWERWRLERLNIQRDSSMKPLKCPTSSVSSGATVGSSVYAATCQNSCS

B1: SEQ ID NO 91 (peptide)
peptide: H[Aib]EGS[αMeF]TSK([γGlu-Palmitoyl])V[αMeS]S[αMeF]LEGEAA[αMeK]E[αMeF]IA[αMeF]VV[αMeK]GG-NH2
modifications: N-terminus assumed
SMILES: CCCCCCCCCCCCCCCC(=O)N[C@@H](CCC(=O)NCCCC[C@H](NC(=O)[C@H](CO)NC(=O)[C@@H](NC(=O)[C@](C)(Cc1ccccc1)NC(=O)[C@H](CO)NC(=O)CNC(=O)[C@H](CCC(=O)O)NC(=O)C(C)(C)NC(=O)[C@@H](N)Cc1c[nH]cn1)[C@@H](C)O)C(=O)N[C@H](C(=O)N[C@@](C)(CO)C(=O)N[C@@H](CO)C(=O)N[C@@](C)(Cc1ccccc1)C(=O)N[C@@H](CC(C)C)C(=O)N[C@@H](CCC(=O)O)C(=O)NCC(=O)N[C@@H](CCC(=O)O)C(=O)N[C@@H](C)C(=O)N[C@@H](C)C(=O)N[C@@](C)(CCCCN)C(=O)N[C@@H](CCC(=O)O)C(=O)N[C@@](C)(Cc1ccccc1)C(=O)N[C@H](C(=O)N[C@@H](C)C(=O)N[C@@](C)(Cc1ccccc1)C(=O)N[C@H](C(=O)N[C@H](C(=O)N[C@@](C)(CCCCN)C(=O)NCC(=O)NCC(N)=O)C(C)C)C(C)C)[C@@H](C)CC)C(C)C)C(=O)O
B2: SEQ ID NO 132 (peptide)
peptide: H[Aib]EGS[αMeF]TSDV[αMeS]S[αMeF]LEGEAAK([Ahx-Ahx-Lauroyl])E[αMeF]IA[αMeF]VV[αMeK]GG-NH2
modifications: N-terminus assumed
SMILES: CCCCCCCCCCCC(=O)NCCCCCC(=O)NCCCCCC(=O)NCCCC[C@H](NC(=O)[C@H](C)NC(=O)[C@H](C)NC(=O)[C@H](CCC(=O)O)NC(=O)CNC(=O)[C@H](CCC(=O)O)NC(=O)[C@H](CC(C)C)NC(=O)[C@](C)(Cc1ccccc1)NC(=O)[C@H](CO)NC(=O)[C@](C)(CO)NC(=O)[C@@H](NC(=O)[C@H](CC(=O)O)NC(=O)[C@H](CO)NC(=O)[C@@H](NC(=O)[C@](C)(Cc1ccccc1)NC(=O)[C@H](CO)NC(=O)CNC(=O)[C@H](CCC(=O)O)NC(=O)C(C)(C)NC(=O)[C@@H](N)Cc1c[nH]cn1)[C@@H](C)O)C(C)C)C(=O)N[C@@H](CCC(=O)O)C(=O)N[C@@](C)(Cc1ccccc1)C(=O)N[C@H](C(=O)N[C@@H](C)C(=O)N[C@@](C)(Cc1ccccc1)C(=O)N[C@H](C(=O)N[C@H](C(=O)N[C@@](C)(CCCCN)C(=O)NCC(=O)NCC(N)=O)C(C)C)C(C)C)[C@@H](C)CC

molecular target: T1, GLP-1R (INS1e assay); test: cell-based or functional assay

Binder	INS1e assay EC50 GLP-1 R n1 [nM]	INS1e assay EC50 GLP-1 R n2 [nM]	INS1e assay EC50 Mean pM GLP-1R [pM]
H[Aib]EGS[αMeF]TSDV[αMeS]S[αMeF]LEGEAA[αMeK]E[αMeF]IA[αMeF]VK([PEG2′-PEG2′-γGlu-Stearoyl])[αMeK]GG-NH2 [SEQ ID NO 102]	4.22	2.89	3560
H[Aib]EGS[αMeF]TSDV[αMeS]S[αMeF]LEGEAAK([PEG2′-Lauroyl])E[αMeF]IA[αMeF]VV[αMeK]GG-NH2 [SEQ ID NO 134]	0.168	0.0776	123
B1	1.93	3.5	2720
H[Aib]EGS[αMeF]TSDK([PEG2′-PEG2′-γGlu-Stearoyl])[αMeS]S[αMeF]LEGEAA[αMeK]E[αMeF]IA[αMeF]VV[αMeK]GG-NH2 [SEQ ID NO 119]	2.71	1.45	2080
H[Aib]EGS[αMeF]TSDV[αMeS]S[αMeF]LEGK([PEG2′-PEG2′-γGlu-Stearoyl])AA[αMeK]E[αMeF]IA[αMeF]VV[αMeK]GG-NH2 [SEQ ID NO 112]	0.294	0.476	385
H[Aib]EGS[αMeF]TSDV[αMeS]S[αMeF]LEGEAA[αMeK]E[αMeF]IK([PEG2′-PEG2′-γGlu-Stearoyl])[αMeF]VV[αMeK]GG-NH2 [SEQ ID NO 105]	0.22	1.72	970
H[Aib]EGS[αMeF]TSDV[αMeS]S[αMeF]LEGEAA[αMeK]E[αMeF]IA[αMeF]VVK([PEG2′-PEG2′-γGlu-Stearoyl])GG-NH2 [SEQ ID NO 101]	1.47	6.65	4060
H[Aib]EGS[αMeF]TSDV[αMeS]S[αMeF]LEGEAA[αMeK]E[αMeF]IA[αMeF]VV[αMeK]K([PEG2′-PEG2′-γGlu-Stearoyl])G-NH2 [SEQ ID NO 100]	0.233	1.41	822
B2	0.129	0.115	122
H[Aib]EGS[αMeF]TSDV[αMeS]S[αMeF]LEGEK([PEG2′-PEG2′-γGlu-Stearoyl])A[αMeK]E[αMeF]IA[αMeF]VV[αMeK]GG-NH2 [SEQ ID NO 111]	0.501	1.11	806
H[Aib]EGS[αMeF]TSDV[αMeS]S[αMeF]LEGEAA[αMeK]EK([PEG2′-PEG2′-γGlu-Stearoyl])IA[αMeF]VV[αMeK]GG-NH2 [SEQ ID NO 107]	5.23	11.7	8460
H[Aib]EGS[αMeF]TSDV[αMeS]S[αMeF]LEGEAAK([PEG2′-PEG2′-γGlu-Palmitoyl])E[αMeF]IA[αMeF]VV[αMeK]GG-NH2 [SEQ ID NO 109]	8.35	4.32	6340
H[Aib]EGS[αMeF]TSDV[αMeS]S[αMeF]LEK([PEG2′-PEG2′-γGlu-Stearoyl])EAA[αMeK]E[αMeF]IA[αMeF]VV[αMeK]GG-NH2 [SEQ ID NO 113]	0.823	1.26	1040
H[Aib]EGS[αMeF]TSDV[αMeS]S[αMeF]LEGEAAK([PEG2′-PEG2′-Lauroyl])E[αMeF]IA[αMeF]VV[αMeK]GG-NH2 [SEQ ID NO 135]	0.0986	0.0593	79
H[Aib]EGS[αMeF]TSDV[αMeS]S[αMeF]LEGEAA[αMeK]K([PEG2′-PEG2′-γGlu-Stearoyl])[αMeF]IA[αMeF]VV[αMeK]GG-NH2 [SEQ ID NO 108]	0.038	0.458	248
H[Aib]EGS[αMeF]TSDV[αMeS]SK([PEG2′-PEG2′-γGlu-Stearoyl])LEGEAA[αMeK]E[αMeF]IA[αMeF]VV[αMeK]GG-NH2 [SEQ ID NO 116]	1.61	0.61	1110
H[Aib]EGS[αMeF]TSDV[αMeS]K([PEG2′-PEG2′-γGlu-Stearoyl])[αMeF]LEGEAA[αMeK]E[αMeF]IA[αMeF]VV[αMeK]GG-NH2 [SEQ ID NO 117]	0.765	1.67	1220
H[Aib]EGS[αMeF]TSDV[αMeS]S[αMeF]LEGEAA[αMeK]E[αMeF]IAK([PEG2′-PEG2′-γGlu-Stearoyl])VV[αMeK]GG-NH2 [SEQ ID NO 104]	0.391	0.27	331
H[Aib]EGS[αMeF]TSDV[αMeS]S[αMeF]LEGEAK([PEG2′-PEG2′-γGlu-Stearoyl])[αMeK]E[αMeF]IA[αMeF]VV[αMeK]GG-NH2 [SEQ ID NO 110]	31.6	23.1	27400
H[Aib]EGS[αMeF]TSDV[αMeS]S[αMeF]K([PEG2′-PEG2′-γGlu-Stearoyl])EGEAA[αMeK]E[αMeF]IA[αMeF]VV[αMeK]GG-NH2 [SEQ ID NO 115]	0.593	0.494	544
H[Aib]EGS[αMeF]TSDV[αMeS]S[αMeF]LEGEAA[αMeK]E[αMeF]IA[αMeF]K([PEG2′-PEG2′-γGlu-Stearoyl])V[αMeK]GG-NH2 [SEQ ID NO 103]	0.428	0.59	509
H[Aib]EGS[αMeF]TSDV[αMeS]S[αMeF]LEGEAA[αMeK]E[αMeF]IA[αMeF]VV[αMeK]GK([PEG2′-PEG2′-γGlu-Stearoyl])-NH2 [SEQ ID NO 99]	11	5.88	8440

— patent US20200079833A1 (AstraZeneca / MedImmune, published 2020)
